Test results: paper PMC10618255, “Cryo-EM structure of human O-GlcNAcylation enzyme pair OGT-OGA complex” (Nature Communications, 2023)

B1: full-length human OGT (O-GlcNAc transferase), C-terminal His6 (enzyme, UniProt O15294 1-1046, looked up)
chain: MASSVGNVADSTEPTKRMLSFQGLAELAHREYQAGDFEAAERHCMQLWRQEPDNTGVLLLLSSIHFQCRRLDRSAHFSTLAIKQNPLLAEAYSNLGNVYKERGQLQEAIEHYRHALRLKPDFIDGYINLAAALVAAGDMEGAVQAYVSALQYNPDLYCVRSDLGNLLKALGRLEEAKACYLKAIETQPNFAVAWSNLGCVFNAQGEIWLAIHHFEKAVTLDPNFLDAYINLGNVLKEARIFDRAVAAYLRALSLSPNHAVVHGNLACVYYEQGLIDLAIDTYRRAIELQPHFPDAYCNLANALKEKGSVAEAEDCYNTALRLCPTHADSLNNLANIKREQGNIEEAVRLYRKALEVFPEFAAAHSNLASVLQQQGKLQEALMHYKEAIRISPTFADAYSNMGNTLKEMQDVQGALQCYTRAIQINPAFADAHSNLASIHKDSGNIPEAIASYRTALKLKPDFPDAYCNLAHCLQIVCDWTDYDERMKKLVSIVADQLEKNRLPSVHPHHSMLYPLSHGFRKAIAERHGNLCLDKINVLHKPPYEHPKDLKLSDGRLRVGYVSSDFGNHPTSHLMQSIPGMHNPDKFEVFCYALSPDDGTNFRVKVMAEANHFIDLSQIPCNGKAADRIHQDGIHILVNMNGYTKGARNELFALRPAPIQAMWLGYPGTSGALFMDYIITDQETSPAEVAEQYSEKLAYMPHTFFIGDHANMFPHLKKKAVIDFKSNGHIYDNRIVLNGIDLKAFLDSLPDVKIVKMKCPDGGDNADSSNTALNMPVIPMNTIAEAVIEMINRGQIQITINGFSISNGLATTQINNKAATGEEVPRTIIVTTRSQYGLPEDAIVYCNFNQLYKIDPSTLQMWANILKRVPNSVLWLLRFPAVGEPNIQQYAQNMGLPQNRIIFSPVAPKEEHVRRGQLADVCLDTPLCNGHTTGMDVLWAGTPMVTMPGETLASRVAASQLTCLGCLELIAKNRQEYEDIAVKLGTDLEYLKKVRGKVWKQRISSPLFNTKQYTMELERLYLQMWEHYAAGNKPDHMIKPVEVTESA
notes: human O-GlcNAc transferase (OGT), full length, UniProt O15294; Scissor-shaped homodimer by cryo-EM; also called OGT WT; His6-tagged OGT; source: E. coli BL21 (DE3), purified (Ni-NTA, Resource Q, Superose 6); for the OGT-OGA complex co-expressed with OGA in BL21 (DE3); not shown: His6, C-terminal, kept
B2: GST-OGA (residues 371-440) (domain or fragment, human, UniProt O60502 371-440, looked up)
chain: DVLYSPQMALKLALTEWLQEFGVPHQYSSRQVAHSGAKASVVDGTPLVAAPSLNATTVVTTVYQEPIMSQ
notes: human OGA, residues 371-440, UniProt O60502, cloned into pGEX-6P-1; also called GST-OGA fragment; source: E. coli BL21 (DE3), purified (Glutathione Sepharose 4B, Resource Q, Superose 6)

How the values were obtained:
[1] = O-GlcNAc at S405
[2] = target: the molecule itself; test: cryo-EM structure; single-particle cryo-EM of full-length human OGT alone, incubated with 1 mg/ml UDP-GlcNAc on ice; overall resolution 3.69 Å
[3] = target: B1; test: pull-down; GST pull-down: GST-OGA bait on Glutathione Sepharose 4B, His6-tagged OGT or mutants as prey; all proteins 1 mg/ml; 25 mM Tris pH 8.0, 150 mM NaCl, 2 mM DTT, 0.05% NP40; 2 h at 4 °C; SDS-PAGE with Coomassie staining; details: both partners purified

## OGA (O-GlcNAcase): OGT H508A mutant bound to OGA
[1]
  enzymatic_activity: no change

## B1
[2]
  stoichiometry N: 2

## B2
[3]
  binding result: binds
